From patent publication US20230302116A1 come the findings set out here.

The target in assay [1] is nAb3 (Absolute Antibody Ab01680-10.0), human anti-spike neutralizing antibody. Nature of the assay: repeat Octet BLI, target on AHC sensor, spike as analyte.
The target of assay [2] is nAb2 (Active Motif 91361), human anti-spike neutralizing antibody. Described as above.
Assay [3] has as its target nAb1 (Active Motif 91349), human anti-spike neutralizing antibody. The description is as above.
Assay [4] deals with nAb3 (Absolute Antibody Ab01680-10.0), human anti-spike neutralizing antibody. Kind of assay: Octet BLI, target on AHC sensor, spike as analyte.
Assay [5] deals with nAb2 (Active Motif 91361), human anti-spike neutralizing antibody. Nature of the assay: Octet BLI, target on AHC sensor, spike as analyte.
Assay [6] addresses nAb1 (Active Motif 91349), human anti-spike neutralizing antibody. Nature of the assay: Octet BLI, target on AHC sensor, spike as analyte.

With “SPN-C52H8 (SARS-CoV 2 Spike protein with His Tag, Acro Biosystems) (from UniProt P0DTC2 14-1213)”, the kon amounted to 11300 M⁻¹ s⁻¹ in assay [1]; 54300 M⁻¹ s⁻¹ in assay [2]; 18400 M⁻¹ s⁻¹ in assay [3]; 34300 M⁻¹ s⁻¹ in assay [4]; 115000 M⁻¹ s⁻¹ in assay [5]; 75400 M⁻¹ s⁻¹ in assay [6].
